Assay: soluble on expression in E. coli; label from the status in PepcDB or PDB records

| Sequence | soluble on expression in E. coli |
| --- | --- |
| MLNVESHVLRYWEEELEIKIPRNEMGHRYYTEDNIESLRKVRDLKKQGYSLKAIKNMVNPKKATRENKESNERLTVRQPISLMEVREKKVGVENCYQEVPEAMSGSVQSVVQNMTQSNGQNAESAGLKLEQFQNLMNKVVSKALKESTTNLGKELSDNVSENVLKGMNYMMRVQDEKEEERYRKLDELMRNKQKLSRREKRKKAKAEKLLLKNKKKGMAHFGKKPQTT | not soluble |
| MLPAYIRIHDQIKKEIDEGLWKIGDRLPSERDLAERFEVSRMTLRQAITLLVEEGILERRVGSGTYIASSRVQEKMRGTTSFTEIVKSQGKTPSTKLISYRRVHPSEQEIKFLDIKPKSYIIRMERVRYADDIPVVFEVTAIPEKIIKSFKKEAITKHFFKTLTDHGFVIGKSQQTISASNANEMTADYLAISRGHAVLTLAQVSYFENGMPFEYVRSQYVGERFEFYLENK | not soluble |
| MLPEKRLLTPDDMKLWEESPTRAHFTKFIIDLAESVKGHENSQYKEPISESINSMMNLLSQIKDITQKHPVIKDADSSRFGKVEFRDFYDEVSRNSRKILRSEFPSLTDEQLEQLSIYLDESWGNKRRIDYGSGHELNFMCLLYGLYSYGIFNLSNDSTNLVLKVFIEYLKIMRILETKYWLEPAGSHGVWGLDDYHFLPFLFGAFQLTTHKHLKPISIHNNELVEMFAHRYLYFGCIAFINKVKSSASLRWHSPMLDDISGVKTWSKVAEGMIKMYKAEVLSKLPIMQHFYFSEFLPCPDGVSPPRGHIHDGTDKDDECNFEGHVHTTWGDCCGIKLPSAIAATEMNKKHHKPIPFD | soluble |
| MLPFLPEPSLSYTQQNRTAVLLLNLGTPDAPTAQAVRPYLKSFLTDRRIVELPKWLWYPILHGLVLTFRPKKSAHAYEKIWFKEGSPLEVYTARQAAALAERMPDLIVRHAMTYGNPSIADVLAELKSQGVGRLLAIPLYPQYAASSSGAAVDKVCEQLLLQRNQMSVRTISRFYDDAGYIDAMKNHILRYWAEHGRGKKLMLSFHGVPQKHYDLGDPYPDECRHTAKLLAEALELTEDEYTVSFQSQFGRAKWVTPSTQDLFGKLPKQGVTELDVFCPGFLADCLETMEEIALMGREQFYEAGGKNYRYIPCLNDNPDWIDALVALAEENLGGWR | not soluble |
| MLPGTFFEVLKNEGVVAIATQGEDGPHLVNTWNSYLKVLDGNRIVVPVGGMHKTEANVARDERVLMTLGSRKVAGRNGPGTGFLIRGSAAFRTDGPEFEAIARFKWARAALVITVVSAEQTK | soluble |
| MLPLPWWMLGVGPEEEADESSDYDMVDGHSIEVQESVPTTPVSVFHTPSQSSIIDISDQLVDLPTFLKVAKRRSSTVLETATPAKTPKIQLSERRRKFQRNDTEVMIKTGEPVVDCDETLGLNWLFDTDYPRDAGSGDLLNSTFRIDHRNHGEGTSQITESPKNRDFPLFFSSFDDTTVLFNTTIAGDIDVNERNQASGDWIFRKDKSPTNDPIENDQETDEKTKSELGDGGEIVFKEPVQSTKKTRGRKRGTSVRIEKLSTSRRTSAKKKEEKQKETETFDADKNENPSTPTAPPTMTRRHTPSRKAKTNRTFRL | not soluble |
| MLPPLPDFSLSVEQQFDLQKYRQQVRDISREDLEDLFIEVVRQKMAHENIFKGMIRQGS | soluble |
| MLPSSIEDYALIGDCETAALVGRDGSIDWLCWPSFDSEACFAALLGNEDNGRWQIAPADEVVRCSRRYRGDSLILETTFETATGSITLIDFMPPRGSASDVVRLVRGDRGRVKVAMQLVIRFGYGVALEHHHHHH | not soluble |
| MLPVITRFARPALMAIRPVNAMGVLRASSITKRLYHPKVIEHYTHPRNVGSLDKKLPNVGTGLVGAPACGDVMRLQIKVNDSTGVIEDVKFKTFGCGSAIASSSYMTELVQGMTLDDAAKIKNTEIAKELSLPPVKLHCSMLAEDAIKAAIKDYKSKRNTPTMLS | not soluble |
| MLQALLDSKDFLALTLANPQTLGDEFSFTLGEHTRVNVWDTGVIVFEPAQPQGKDVILSCGVHGNETAPIELCNTLIKQLLQQKIIAKQRTLFLIGNPLAINNGTRIIDENMNRLFSGEHSNPPGLVNPERLRAKKLETYVDRFFKAAAAGRQRIHYDLHTAMRASKHEKFAIYPYRPGRAYSAEQIMFLAASGVDTVLFHHEPTTTFSYFSSEQYGADAFTIELGKVYPMGQNDMTRFIAAQEMFTRLITDKPLQLESFSTDKVNLYQVCRVINKHFDDFEFTFATDVENFRAFPKGFVLAREGGQEIKVEQEVESIVFPNAKVPIGNRTVICLIPSVAPDVRLEHHHHHH | soluble |
| MLQFYRNLGKSGLRVSCLGLGTWVTFGGQITDEMAEHLMTLAYDNGINLFDTAEVYAAGKAEVVLGNIIKKKGWRRSSLVITTKIFWGGKAETERGLSRKHIIEGLKASLERLQLEYVDVVFANRPDPNTPMEETVRAMTHVINQGMAMYWGTSRWSSMEIMEAYSVARQFNLIPPICEQAEYHMFQREKVEVQLPELFHKIGVGAMTWSPLACGIVSGKYDSGIPPYSRASLKGYQWLKDKILSEEGRRQQAKLKELQAIAERLGCTLPQLAIAWCLRNEGVSSVLLGASNAEQLMENIGAIQVLPKLSSSIVHEIDSILGNKPYS | soluble |
| MLQKYSIIVLCCSAVLARVPVAKNCPTGWTWFLRSRGGWCMKVFTEALNQPSAEAKCKAAEAVLAGIQNKEEVAWMSKELTGTMWIGTKRTPPCMNSGVTKQCSQITSYYWTDGSTVGVQGFYWNSGEPNNQGGQGCAKLITSSSVLDDVACTTELTNGYVCGKIATF | not soluble |
| MLQNRLNKARSHAEKHDVDAIVFFNMSNVRYLSGFTGSDGAVVLGRDASWFLTDSRYTTQASRQVVGLPTVEYRIKLDGITELVREQGFRRIGFESEHTAFAVYESLRQKLPKTELVPIGEELAQLRLIKDPSECELLSRVARLASEALLSILPLVKPGAVERELALELEFAMRRAGAENASFDFIVASGERGSLPHGRASDKALAAGELVTIDFGARYEGYCSDETVTVAVGVPDERQCQIYGIVKEAHDRAIAAVRPGAELREIDRIARGYIEEQGYGAFFGHGLGHGVGLDVHEKPVVSPRGEGVAAVGMVFTIEPGIYIPGWGGVRIEDTVIVTEDGCRPITMIPKELMIL | not soluble |
| MLQTLSTHLSSTSTSTTTPLLLLSKPFLSPSAKSQLSHSKPFNFPRTLKPISYYKPPMANILSKLGFGTRSPDPSTMDPTIPQGPDDDLPAPGQQFAQFGAGCFWGVELAFQRVPGVTKTEVGYTQGLLHNPTYEDVCTGTTNHNEVVRVQYDPKECSFDTLIDVLWARHDPTTLNRQGNDVGTQYRSGIYYYTPEQEKAAKESLERQQKLLNRKIVTEILPAKKFYRAEEYHQQYLAKGGRFGFMQSAEKGCNDPIRCYG | soluble |
| MLRFVAILQFILLLLLIFSCNADEAKCTIKPYEAKGDKSPGSNGYVIEINGTTTKSMDISKGFVPGEIYKVSIRGWRTQYTVKTFRGFVVSSLFEDNTSAGSWQVVKGHGDARISPGCRQSGVSHANLKSKTSVHMMWKAPEVSSGCVVFRASVIETKYIWFTEAEGLTVKLCIQKGTQILKPVDDPSATCCACDIAQYDLEFTGIWSKNTHPKDYPTLEHLTHFTDMLGSSHSSNYSLWTIGGISTDGMKEIAEWGNTYKAEAEAKAKASEVRSLMKVKGLWFPDVQGTTKSQFVVNKYHHFVSLATMFGPSPDWCVGLSSVNLCLPDCTWAEERTFELQPFDAGTDSGPTYMSPNEPTEPREPIHWITTKLNPLSPFYNSKSDTIPTLAKVILRRKNVTSSECKSDDILKAEAHNITNTSEDEEYKDRRECMMTQWEPWSLCSATCGKGIRIRSRVYVFPIKAQVFHCHRQTTEKQFCNAKINECENSEAFSSKCQVSSWGSWGECSVQCGHGMRSRNRTFLNPATKSGDCSVDLERKDICVGENGDDCNVTPDPLCKTTAWSDWSPCSASCDEGVRVRTRLFFYSEHEKRCMHVNLQEKDTCVMQSCRRFIEINSEEICQEDKQAGQCAGNFPRYWYNHEKTQCERFIFTGCKGNRNQFETEEECKQICLPGYEKSKSLIPNNQLLEDFGNTEVDDGGERVDCEVSKWTAWGSCSVSCGRGKKSRSRHVVKLARNGGHQCSEHLMQELQCRLRPCPVKLTCQVGPWSRWSPCSVSCGEGSQTRRRRVVRARNDDWEEIECDDAETEVRQCTGRHQC | not soluble |
| MLRGIVVVDFSHYLPGPFASWRLAQLGAEVIKIEPPSGDRLRPFAEGRLFAAYNAGKKSIGLDLKTDAGREQARRLAARADVVIESFRPGVMARLGLGYDDMCRMNEQIIYCSISGFGQQSGRSLLGSHDLNYMALSGLLAQLADERGRPVHPKITLADFIGGMAAAERILAALFARERTGKGAHLDVSLVDGLAAMMAGHFAIEHGGGPKTGLSELSGEVVCYQLYETKDGRYMSLAALEPHFWRRFCEAVGHPEWTEAQWAPARSGEAVYDELAALFREKTLDEWSAFAEAVDVCLAPVLETGEAKALFADSRLRHLVRLQPGGVWTAAHGPDGQWGGGEPPKVNEHAHLVKGEE | not soluble |
| MLRIAVDCMGGDYAPLEIVRGCILAAKELGYKIYLVGDKEQIIPILEKAKEHNNSLLEVVHAPDKVEMHEPPSNVLKKKNSSLYVAGMLVRKGEADGLVSAGNTGAVLAVGKFIVGAEEEVERPSIGVALPNPKGKTVLIDVGANVDCKPKHLVQFAVIGHTYAEEILGIKNPRVGILSIGEEEGKGNELVKETYPLLKATKLNFKGNAEGRDIYAGTFDVIVCDGFVGNVILKASESLGLAVVQMIKEEIKRSILAKLGALLLMPALNRFKKKADFAEYGGIPLLGAKKPVIITHGRANAKAIKNAVRVAGEFLNTDFNKKLVYNLKTLIPEGVKV | soluble |
| MLRISELKLPLGHPPDAMEPAILARLGLSATDLVSFAVARRANDARKKSAIQMVYSVDVVLRDEAAVLRRFEGDHHLRVTPDTGYHFVAKAPEGFDGPRPVVIGAGPCGLFAGLILAQMGLKPIIVDRGKVVRERTKDTWGLWRRSELNPESNVQFGEGGAGTFSDGKLYSQIKDPRFLGRKVLTEFVKAGAPEEILTEAHPHIGTFRLVHMVENMRALIESLGGEYRWQHRVEDFDIEVGEDGVRRVTGLHIAGQGHLPARHVVMALGHSSRDTFQVLYDRGVHIEAKPFSIGVRIEHPQSWIDRARFGDCAGHKDLGAAAYAISHHAKNGRTVYSFCMCPGGTVVAATSEPGRVVTNGMSQYSRNERNANSGFVVDIDPERDYPGHPLAGVDFQRKWESLAFQAGGGTYQAPGQLVGDFLAGRPSTVFGAVTPSYKPGVHLTDLAQCLPDFAIEAMREALPIFGRQIPGYDHPDVVLTGVETRTSSPVRITRGKDFQSLNTAGLYPAGEGAGYAGGILSAAVDGIKVAEAVAKQYVAEGLISACLEHHHHHH | soluble |
| MLRLIPNKGLKKTINTLTVAEKARINHQDIEELLLRYQRSCPEDAARNITEVTNPNQEKHEGLRVFVIQTWMALMVANSYGLETYQTLKTFMDRQGYKTQPDSTYMATEQKD | not soluble |
| MLRVVEVCWRESHMKVLAINSSPRMDKGNTALILNPFLEGMKEAGAEVELFYTKKLKISPCTGEFNCWLKTPGKCYQNDDMNILYPRIDAADVIVFATPVYVDGVTGQMKNFIDRMLPRVEPFVELRDGHCRHPVRGGPKALKFVLVSNCGFWEMDNFDSLLVFMKAFCKNASTEFAGALLRPHGEALSSMLEMGAPIDDVFEAAREVGRQLVKEGKMSQETLDIVSRELLPKEMYIQIANQTFRQCLESLDRLEHHHHHH | not soluble |
| MLSAESLKQIDIELAKYPADQRRSAIMGALRIAQTEKGWLAPETIAFVADYIGISPAQAYEVATFYNMYDLEPVGKYKLTVCTNLPCALRGGMATGEYLKQKLGISYGETTPDGKFTLVEGECMGACGDAPVMLLNNHKMCSFMTEEAIEKKLAELELEHHHHHH | soluble |

From the DeepSol protein solubility set
